Data as given in a protein production outcome set (Wang et al. 2014).

Assay: label from the status in PepcDB records
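Also: failed if final PepcDB status was selected cloned or expressed and not failed if soluble or beyond.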

| Sequence | protein production |
| --- | --- |
| MFVSLLPLLLLTLVVGTLAGGEAFAERIVTAAGDVLTPAASTLLEDALTSGAGRGGATVLGVGVTLWSALKVFRGLDTAFSRVYGTDGPDSIVREIVDGLAALGGIGIALVGLGIIGAFGTVLGVQVALGGLALVPVLAVAFLPLYYLFPDQEMTLREAVPGAVFAGGGWTLLGTGFNVYAAQADSYQVYGVIGGVLLLVTWFYFAGQVLLVGAAVNAALADRQLQQVSRRRSGKAMSEDADETDTPPPAGTGPTGRDTDTLTDEELQELREEFESFREDIEGRTLHRDEVRSDLKQYVRRRMRRGHARQWGPYIVLLYGTIMTLGAFYYLKGLWAVLAMLVIWLSVLGLYAIMIAVGVTLTATGLPGRLVDRVRDWRQ | failed |
| MFVWHEYENAAEAAQSLADAVADALQGALDEKGGAVLAVSGGRSPIAFFNALSQKDLDWKNVGITLADERIVPTNHADSNTGLVREYLLKNKAAAAVWIPMVEDGKTETELHPDAVVDYALKHYKQPDVLILGMGNDGHTASIFPKAPQFQTAIDGSAGVALVHTTPVTAPHERISMTLDAIAHTGHVFLAIQGEEKKAVFDQAAQGENREYPISLVLNHQGVNCHVFYAE | not failed |
| MFYEKIQTPAYILEEDKLRKNCELLASVGEKSGAKVLLALKGFAFSGAMKIVGEYLKGCTCSGLWEAKFAKEYMDKEIHTYSPAFKEDEIGEIASLSHHIVFNSLAQFHKFQAKTQKNSLGLRCNVEFSLAPKELYNPCGRYSRLGIRAKDFENVDLSTIEGLHFHALCEESAGALEAVLKVFEEKFGKWIGQMKWVNFGGGHHITKKGYDVEKLIALCKNFSDKYGVQVYLEPGEAVGWQTGNLVASVVDIIENEKQIAILDTSSEAHMPDTIIMPYTSEVLNARILATRENEKISDLKESEFSYLLTGNTCLAGDVMGEYAFDKKLKIGDKIVFLDQIHYTIVKNTTFNGIRLPNLMLLNAKNELQMIREFSYKDYSLRN | failed |
| MFYITSKKVPFVTYSKNVFIPVTNICRNQCGYCGFRREPGQPGARLMKPEEVISVLENGVRAGCTEALFTFGERAEEVPGYGEMLEEIGYSSTLEYLVFLCETAIDIGILPHTNAGIMTRSELEALKPLNASMGLMLESTAVLAAHKDCPGKIPERRLETIREAGKLKIPYTTGLLIGIGESRDDRIESLEAIAALHREYGHIQEVIIQNFAPKPGTEMENFPEPAVEEMMDSVELAARILPGDVAVQVAPNLIDPKSLIAKGVTDLGGISPLTIDWINPEAEWPDVKNLQKKLGDIPLKERLPVYPPYVKKGWYSERIGSLIKRLEHHHHHH | failed |
| MGAKGKFWILTMVVAISGLSQGVLLPLIAIILEEKGVSAGINGFHATGIYLGVLLVSPFIEAPLHKYGYKPIILVGGGLVAIAIFAFPIWFNLYFWFILRLLIGIGDHMLHFSSQTWIGAMSDPSKRGRNMAIYGLFFSVGFAIGPQLVNLAKVNANLPFFLSGILVLIAWSLVWFIRNDFVGEKAVIRKISFWGSIKRFSGVFKMAWVAMIPPFLYGILETGLNATFPVVGLRDGLDTMMIAMIISSFSVGTIIFQVPIGIISDKFGRDKMLPLLTGAGAVVFVLTAFVKIPIFFVIFFFILGILLGSLYSLGLSYMTDLTPLELLPAGNILVGMFFSLGSIIGPSATGMMIGIFGNQIFYFVVAGILLLGCLLLALGGRKEAH | not failed |
| MGAKGKFWILTMVVAISGLSQGVLLPLIAIILEERGISAGINGFHATGIYLGVLLISPFIEAPLHKYGYKPIILVGGGLVAVSILAFPIWFNLYFWFILRLLIGVGDHMLHFSSQTWIGAMSDPSKRGRNMAIYGLFFSLGFAIGPQLVNLAEINANLPFFLSGILVLIAWGLVWFVRNDFVGEKAVIRKISFWGSLKRFSDVFKLAWVAMIPPFLYGILETGLNATFPVVGLRDGLDTMMIAMVISSFSVGTIIFQVPIGIVSDKFGRGKVLPLLTGAGAVVFVLTAFVKIPVLYVVFFFVLGILLGSLYSLGLSYMTDLTPLELLPAGNILVGMCFSLGSIIGPSATGMMIGIFGNQIFYFVVAGILVLGCLLLIFGARKDALEKKMKN | failed |
| MGAMAEIQFIRGINEEVVPDVRLTRARDGSSGQAMFYFDNPKIVQEGNLEVTGMYMVDEEGEIVTRDVNAKFINGQPVAIEATYTMRSPQEWDRFIRFMDRYAASHGLGFQKSENS | failed |
| MGCAGSTQSQADGSVKKIRKPKPWKHTQPITKAELMKLREEFWDTAPHYGGRKEIWDALRAAAEADISLAQAIVDSAGVIVQNTDLTVCYDERGAKYELPKYVLSEPTNLEEEN | failed |
| MGCFASRPNDTGGNRRKPTSIGDVSVYVPGLRIPKPVEFSQSLGDQLPKTLVERLTALRTRIVVMANQEGPTITRTRRKTQHGGSTLADLHHALEDYIPVLLGLTKDGSHLQFKVQFNWVNQEDEEEETAMSNVWYEILSVLHLMAMLQMSQANLLLLPRGSSDGYHPKISEENRRASIDIFLKAAGYLDCAVKHVLPHFSTEQRRSLPIDLAEGALRALCLQALGQGVDIQLGMAIDSAKATLAVKRRLSCEMVKYWQQAQDNLMNLPLANGWGEKHMLFVKWKYVEAKAAAYYYHGLILDEGNTEKSHGMAVAALQAADECLKESKKASEAFNTSSPTSRTPSLFGTMKYLSEKIPKETSSKVRINRDLYSYEKIMETAPTLPDFALALKPDEYQLPSVDASWSEASLRTKNTSNHI | not failed |
| MGCGLRKLEDPDESSPGKIFSTLKRPQVETKTEFAYEYALLDFTLQASTNPDVIKINSVLDIVAKVEDYYLKGYVVGAIHPVIQPVGQRKHLPASHLYRAVLSRLKLSPKHSAAGGQRRARLVMEECPLTCEAQANDAAKELMDKINAAAKRGMKFVGLVSQCYLPSMHCNGASHDGVAESGLHVRQDSQDNCKGWNEGALGGHLSESGVEEEPQHESGQHQTERNSSPSYANPKRGEAPDGKLYMVFNAFEEDAASWAYQEGVLSMKVTRKGAVISALDANWLELTTFYYKQGFSLIDSFVCWETPKVAKLEAFQLSVSDKLPKGKQKYSFQSLSGIPASGLA | not failed |
| MGCICFKSWRRSSSSPSITSTVIDDLENVREYDADDDGGHYPLIFREFSLEQLRIATDGFSAGNIVSEHNDSVPNIVYKGKLGDGRRIAVKRFQRLSWPDPFEFINEAQAVGRLRSEHMANLIGCCCDDNERLLVAEYMPNGTLAKHLFHWEKRPMKWEMRLKVALHTARALEYCNDKGIDLYHDLNPYRIMFDKTGIPKLSCFGLMKNSHEGKIYSTNLAFAPPEYLRLGTVIAESVTFSFGTLLLDLMSGRHIPPNHALDLFRGKNYLVLMDSALDGQFSDEDRTELIHVASRCFKTEPEERPSIKFLKATLSRLQKRAKLCPINVKRPMSPPSKNLPEKTKPATESLKLTPFGDACSRADLSSIHELLEKLGYEEDNGVGNEFSFQMWTGEMQENMDYKKHGDAAFLAKDFDTAIEFYTEFMTGAPTVSPTVLARRCLCYLMTEMFSEALSDAMQAQVASPEWPIPLYLQAACLFKLEMEAEAKEALRHGSALEAY | failed |
| MGCLYSKGNVHFSIDDEIYDIKETRKQQQKEKEKEEEEKKLRPSSTPKVEHTWPSKLELSLQHLSQKTQNARKIQAWWRGTLVRRSLLRAALSAWIIQSWWRKILAKRQEKNRLIILHLMAQETRACVLIQSWVRMLKIRQNYCRLCYATRVIQASWRWYNCRTRGFFQGSYELVGNKLRLRLDIFLGSQVCRISDCISLPIKN | failed |
| MGCRATQRESVGFADKIRYTERRFISVFGVPLLIQLICQAPQRAQELEQIAARWQLQASDDSPFALVLSEERLELRKLDEPKLGAIYVDWVEGAVAHRRKFGGGKGQSIAKAAGLNKGVTPVVLDATAGLGRDAFVLASLGCRVQMVERHPVVAALLEDGLQRAKQDDEIGAWVSERISLLHASSHDALQQLASDPNFTSPDVVYLDPMYPHPENKKKTALVKKEMRVFQSLVGADNDADALLEPALQLAQKRVVVKRPDYAPWLGNRKPSMAMETKKNRFDVYVIAAMSGE | failed |
| MGDEDLIELKFRLADGTDIGPSKYSQFMTVASLKEKIIAQWPKDKENAPKMINEVKLINGGKILENNKTLSEARSLITIGELPGIVTTMHVVLRPPLFEKKKEKLQNDPPRKSHCVCCIL | failed |
| MGDIEGINIQSMASEIKKLRHKIETLEQQNSDLEIALTTAVEHGDAIESELFSTNDRLRGEVRERVIAERRLSKVLTVVSQQKDDLEVLVQTITEHSDEIDTQWLSRYSEVEALARLDPLTSIANRRMLDSALEQEWTRSLRSGSPLSVAMCDLDLFKAYNDRYGHNRGDQVLIAFAEILRGCSRRPPDLPARVGGEEFLILFPETDLAGARQVAEAIRLALWTLAIPHADSPHGRVTVSIGLACVFPRPEGDPADLIAQADFRLYEAKAHNRNTVRA | failed |
| MGDKEESKKFSANLNGTEIAITYVYKGDKVLKQSSETKIQFASIGATTKEDAAKTLEPLSAKYKNIAGVEEKLTYTDTYAQENVTIDMEKVDFKALQGISGINVSAEDAKKGITMAQMELVMKAAGFKEVKLEHHHHHH | not failed |
| MGETTVGHVAGEVVRALYGAGYMESTIGQYRKSIRALERYAGGPDAVYTRGLGAGFAASTFSERTGGFSRQRWFDYGRLARLCDSYLRSGSVDLGKWRRSRLAEPVVPGLAVVMERWEAYLAGSGLASATVGHYRRMAGLFLTWLESHGVVSLDGSDGSHVLGFLAGLRSRWSESSMRHAASDLRPLFRWLGRDDLADAIGLAGIRRTHAIAGTLPDDEHRRLLEACASRSVPSRDAAITLLSLTCGLRACDVIGLRIADVDWDSMSIGLVQRKTGNPLTVPMTGPLAARLASWLLDERPATDDDRVFVRYKAPHVALRGHSSVYEAISRVMRHAGLGRRGGSRLLRRNAATRMLEAATPLPTISAVLGHADPDSTRVYMATHRGGMLACVLPVPEGGSS | failed |
| MGEYYHATVNGVVEYGAFVDLSEHVSGLIHESTYSGDPDLAVDDDVIVHLSAVRDNGDLSFEFVDPEEYRTEQRSHAYERTTADAVGLEHHHHHH | not failed |
| MGFADFFKNFKINKLRTAPSKEEQPSHWVKCPKCYALMYHKEVFSKYSVCLKCHYHFRMKAAERIEFLCDVGSFEEFDKHLRPNDPLNFVDKESYKQRIKKYEKRTNRPSSVISGEAKINRMPLQIVVFDFSFMGGSLGSVEGEKIVRAINRAVAKREALLIVSASGGARMQESTYSLMQMAKTSAALNRLSEAKLPFISLLSDPTYGGVSASFAFLGDLIIAEPGAMIGFAGPRVIKQTIGADLPEGFQTAEFLLEHGLIDMIVHRKDLKKTLSDLIAMMTHKTSKIF | failed |
| MGFIMEFAENLVLRLMENPEERDRKAREHIYEMHERCKKIKEMWALPIRPYGFWTFERHNAQLRWDPQISQVAGRRDPYDDLLEDNYTPPSSSSSSSD | failed |
| MGFLDALMGNASEVDLGKLAAELSPILGDNEELQLAYKMVRDLFVFTSKRLILIDKQGVTGKKVSYHSIPYKAIVHFQVETAGTFDMDAELKLWISGQHEPLVKELKRGTDVVGIQKTIARYALG | not failed |
| MGFLEAYKSFWRNYVNFSGRAPRSAYWYVVLWNVIIFVILYALAFIFGISAIMEAAMGGTGMAGGGGAIVLVIILWLYLLAALLPTISLMVRRLHDSGKSGFFVLLSLIPFAGGIIMLIFMCLESDGPNQYGDGDIDSKFDF | failed |
| MGFLESFVSFIVYLASTCGYVGIFILNMLEYACLPFPSEIVLPAIGASVASGKYSMIYALPISVIGGVVGTLISYSVGMYAGKKVISFAKRKHKKSKSIFEKIDRLFSRYGKITVFLARLLPFTRTYISLFAGAEKVNKIMFVIFSALGITIMDSFYLLLGYFAYDNKSFIEKALRHYSIGLIIIIVIAIFSYYIYKNLKLKKLKKEN | failed |
| MGFLHKLWDETVAGPTPDNGLGKLRKHDSLSTVRSSPPSLSSDQVTRSIMVTKGNNNVRGLRKLKMDPDSPTCSSSNPGTPLTPGTPCYALGPFTAGKIPSSGEDDAASLTTYEWIVINALDR | failed |
